B1: B. subtilis: purified 4-methyl-5-(2-hydroxyethyl)thiazole kinase from Bacillus subtilis (SEQ ID NO:1) (protein, listed as Bacillus subtilis)
chain: MDAQSAAKCLTAVRRHSPLVHSITNNVVTNFTANGLLALGASPVMAYAKEEVADMAKIAGALVLNIGTLSKESVEAMIIAGKSANEHGVPVILDPVGAGATPFRTESARDIIREVRLAAIRGNAAEIAHTVGVTDWLIKGVDAGEGGGDIIRLAQQAAQKLNTVIAITGEVDVIADTSHVYTLHNGHKLLTKVTGAGCLLTSVVGAFCAVEENPLFAAIAAISSYGVAAQLAAQQTADKGPGSFQIELLNKLSTVTEQDVQEWATIERVTVS
B2: Rh. leguminosarum: purified 4-methyl-5-(2-hydroxyethyl)thiazole kinase from Rhizobium leguminosarum (SEQ ID NO:3) (protein, listed as Rhizobium leguminosarum)
chain: MQTRTTPGAMLKAMREKPPLVQCITNYVAMNIAANVLLAAGASPAMVHAAEEAGEFAAIASALTINIGTLSTQWIDGMQAAAKAATSAGKPWVLDPVAHYATAFRRNAVAELLALKPTIIRGNASEIIALAGGESRGQGVDSRDPVEQAEGSARWLAERQRAVVAVTGAVDFVTDGERAVRIEGGSALMPQVTALGCSLTCLVGAFAATAPEDIFGATVAALSTFAIAGEEAALGAAGPGSFSWRFLDALAALDAETLDARARISAA
B3: E. coli: purified 4-methyl-5-(2-hydroxyethyl)thiazole kinase from Escherichia coli (SEQ ID NO:2) (protein)
chain: MQVDLLGSAQSAHALHLFHQHSPLVHCMTNDVVQTFTANTLLALGASPAMVIETEEASQFAAIASALLINVGTLTQPRAQAMRAAVEQAKSSQTPWTLDPVAVGALDYRRHFCHELLSFKPAAIRGNASEIMALAGIANGGRGVDTTDAAANAIPAAQTLARETGAIVVVTGEMDYVTDGHRIIGIHGGDPLMTKVVGTGCALSAVVAACCALPGDTLENVASACHWMKQAGERAVARSEGPGSFVPHFLDALWQLTQEVQA
modifications: E. coli
B4: Short chain alcohol dehydrogenase-like protein from Hahella chejuensis: short-chain dehydrogenase from Hahella chejuensis (Uniprot Q2SCE0; SEQ ID NO: 17) (protein, listed as Hahella chejuensis)
chain: MNYFVTGGTGFIGRFLVPKLLKRGGTVYLLVREASLPKLDELRERWNASDEQVVGVVGDLAQPMLGVSEKDAAMLRGKVGHFFHLAAIYDMQASAESQEQANIEGTRNAVKLADSLKAACFHHVSSIAAAGLYRGIFREDMFEEAEKLDNPYLRTKHESEKVVREECQTPWRVYRPGMVVGHSKTGEIDKIDGPYYFFKLIQKLRSALPQWMPTVGLEGGRINIVPVDFVVDAMDHIAHAEGEDGKCFHLTDPDPYKVGEILNIFAEAGHAPKMAMRIDARMFGFIPPMIRQGIARLPPVQRMKNAVLNDLGIPDEVMSFINYPTRFDNRETERLLKGTAIAVPRLQDYSPAIWDYWERHLDPDLHKDRTLRGAVEGRVCVITGATSGIGLSAARKLAEAGAKVVIAARTLEKLQEVKKELEELGGEVYEYSVDLSDLEDCDRFVANVLKDLGHVDVLVNNAGRSIRRSIQHAFDRFHDFERTMQLNYFGSLRLIMGFAPSMLERRRGHIVNISSIGVLTNAPRFSAYVASKAALDAFSRCAAAEFSDKNVTFTTINMPLVRTPMISPTKIYDSVPTLTPEEAADLVAEAIIHRPKRIATRLGVFAQVLHSMAPKFSEIIMNTGFKMFPDSSAATGGKDGEKPKVSTEQVAFAAIMRGIHW
B5: Short chain alcohol dehydrogenase-like protein from Marinobacter algicola (SEQ ID NO: 16): short-chain dehydrogenase from Marinobacter algicola (Uniprot A6EUH6) (protein)
chain: MNYFLTGGTGFIGRFLVEKLLARGGTVHVLVREQSQEKLDKLRERWGADESRVKAVIGDLTSPNLGIDAKTMKSLKGNIDHFFHLAAVYDMGADEKSQQATNIEGTHSAVNAAAAMEAGCFHHVSSIAAAGLFKGTFREDMFEEAEKLDHPYLLTKHESEKVVRESCKVPFRIYRPGMVVGHSKTGEMDKVDGPYYFFKMIQKIRHALPQWVPTIGIEGGRLNIVPVDFVVNAMDHIAHLKGEDGNCFHLVDSDPYKVGEILNIFSEAGHAPRMAMRIDSRMFGFVPPFIRQSLKNLPPVKRLTTALLDDMGIPPSVLSFINYPTRFDARETERVLKDTGIVVPRLESYAAVLWDFWERNLDPDLFKDRTLRGTVEGKVCVITGGTSGIGLATAQKLADAGAILVIGARKKERLMEVAAELEARGGNVHAYQCDFADMDDCDRFVKTVLDNHGHVDVLVNNAGRSIRRSLALSFDRFHDFERTMQLNYFGSVRLIMGFAPAMLERRRGHVVNISSIGVLTNAPRFSAYVASKSALDTFSRCAAAEWSDRNVTFTTINMPLVKTPMIAPTKIYDSVPTLTPDEAAEMVADAIVYRPKRIATRLGIFAQVMQALAPKMGEIVMNTGYRMFPDSPAAAGSRSGAKPKVSSEQVAFAAIMRGIYW
modifications: Marinobacter algicola DG893
B6: Short chain alcohol dehydrogenase-like protein from Marinobacter sp. ELB17 (SEQ ID NO: 15): short-chain dehydrogenase from Marinobacter sp. ELB17 (Uniprot A3JCC5) (protein)
chain: MNYFVTGGTGFIGRFLIARLLARGAIVHVLVREQSVQKLADLREKLGADEKQIKAVVGDLTAPGLGLDKKTLKQLSGKIDHFFHLAAIYDMSASEESQQAANIDGTRAAVAAAEALGAGIFHHVSSIAVAGLFKGTFREDMFAEAGKLDHPYFSTKHESERVVRDECKLPFRIYRPGMVIGDSATGEMDKVDGPYYFFKMIQKIRGALPQWVPTIGLEGGRLNIVPVNFVADALDHIAHLPDEDGKCFHLVDSDPYKVGEILNIFCEAGHAPKMGMRIDSRMFGFVPPFIRQSLKNLPPVKRMGRALLDDLGIPASVLSFINYPTRFDARETERVLQGTGIEVPRLPDYAPVIWDYWERNLDPDLFTDRTLRGTVEGKVCVVTGATSGIGLATAEKLADAGAILVIGARTQETLDQVSAQLNARGADVHAYQCDFADMDACDRFIQTVSENHGAVDVLINNAGRSIRRSLDKSFDRFHDFERTMQLNYFGSLRLIMGFAPAMLERRRGHIINISSIGVLTNAPRFSAYVASKAALDSFSRCAAAEWSDRHVCFTTINMPLVKTPMIAPTKIYDSVPTLSPEEAADMVVNAIVYRPKRIATRMGVFAQVLNAVAPKASEILMNTGYKMFPDSMPKKGKEVSAEKGASTDQVAFAAIMRGIHW
modifications: Marinobacter sp. ELB17
B7: Short chain alcohol dehydrogenase-like protein from Marinobacter manganoxydans (SEQ ID NO: 14): short-chain dehydrogenase from Marinobacter manganoxydans (Uniprot G6YQS9) (protein)
chain: MNYFLTGGTGFIGRFLVEKLLARGGTVHVLVREQSQDKLDKLRERWGADETQVKAVIGDLTSKNLGIDAKTMKALKGKIDHFFHLAAVYDMGADEEAQQATNIEGTRAAVNAAEAMGAKHFHHVSSIAAAGLFKGIFREDMFEEAEKLDHPYLRTKHESEKVVREECKVPFRIYRPGMVIGHTATGEMDKVDGPYYFFKMIQKIRHALPQWVPTIGVEGGRLNIVPVDFVVNAMDHIAHLEGEDGKCFHLVDTDPYKVGEILNIFSEAGHAPRMGMRIDSRMFGFIPPFIRQSLKNLPPVKRLTSAILDDMGIPPSVMSFINYPTRFDARETERVLKGTGIEVPRLPDYAPVIWDYWERNLDPDLFKDRTLKGTVEGRVCVVTGATSGIGLATAQKLADAGAILVIGARKLERLKEVAAELESRGASVHAYPCDFSDMDACDEFVKTVLDNHGQVDVLVNNAGRSIRRSLDLSFDRFHDFERTMQLNYFGSVRLIMGFAPKMLENRRGHVVNISSIGVLTNAPRFSAYVASKSALDAFSR
modifications: Marinobacter manganoxydans

Experiment: Screening for crotyl alcohol phosphorylation activity (pyruvate kinase/lactate dehydrogenase coupled ADP assay)
Format: biochemical
Conditions: 50 mM crotyl alcohol (cis and trans mixture), 5 mM ATP, 0.05 mg/ml enzyme, 37° C., pH 7.5
Method: The release of ADP that is associated with crotyl alcohol phosphorylation was quantified using the pyruvate kinase/lactate dehydrogenase coupled assay (FIG. 5). The purified 4-methyl-5-(2-hydroxyethyl)thiazole kinases from Escherichia coli (SEQ ID NO:2), Bacillus subtilis (SEQ ID NO:1), Rhizobium leguminosarum (SEQ ID NO:3) were evaluated for their ability to phosphorylate crotyl alcohol releasing ADP. The studied enzymatic reaction was carried out under the following conditions at 37° C.: • 50 mM Tris-HCl pH 7.5 • 10 mM MgCl2 • 100 mM KCl • 5 mM ATP • 0.4 mM NADH • 1 mM Phosphoenolpyruvate • 3 U/ml Lactate dehydrogenase • 1.5 U/ml Pyruvate kinase • 50 mM crotyl alcohol, mixture cis and trans • The pH was adjusted to 7.5
Each assay was started by addition of a particular enzyme at a concentration 0.05 mg/ml and the disappearance of NADH was monitored by following the absorbance at 340 nm.

| Molecule | Activity, micromole/min · mg protein |
| --- | --- |
| B1 | 0.014 micromole/min · mg protein |
| B2 | 0.087 micromole/min · mg protein |
| B3 | 0.220 micromole/min · mg protein |

Same assay, conditions: 50 mM crotyl alcohol, 37° C.

| Molecule | ADP production in the presence of crotyl alcohol |
| --- | --- |
| B2 | reproducible and significant increase in ADP production |
| B3 | reproducible and significant increase in ADP production |

Experiment: Crotonyl-CoA reductase assay, NADPH decrease at 340 nm
Format: biochemical
Conditions: 5 mM trans crotonyl-CoA, 0.1-0.4 mM NADPH, 0.5-1 mg/ml enzyme, 37° C., pH 7.5
From the text: Sequences of short-chain dehydrogenases/reductases inferred from the genomes of prokaryotic organisms were generated by oligonucleotide concatenation to fit the codon usage of E. coli. […] The genes thus synthesized were cloned in a pET25b expression vector and the proteins were produced according to the protocol described in Example 1.

| Molecule | Activity, μmol/min/mg protein |
| --- | --- |
| B4 | 4.9 μmol/min/mg protein |
| B5 | 4 μmol/min/mg protein |
| B6 | 1.2 μmol/min/mg protein |
| B7 | 7.5 μmol/min/mg protein |

Source: patent US9169496B2, “Method for the enzymatic production of butadiene” (Scientist of Fortune, S.A., priority 2011, dated 2015)
